Assay results taken from patent publication US6429304B1, “Nucleic acids encoding a katanin p60 subunit” (The Regents of the University of California, priority 1998, dated 2002).

How the values were obtained:
MSU1.1 human fibroblasts = test: Centrosome targeting of GFP fusion after transient transfection; assay type: cell-based; conditions: 2-4 hr after transfection
Procedure: To allow transient expression of a human p80 WD40-GFP fusion protein in HeLa cells, a DNA fragment containing amino acids 1-263 of human p80 katanin was generated by PCR amplification, placing a BamHI site and a Kozak consensus at the predicted translation start and an EcoRI site after the codon for a.a. 263. This BamHI-EcoRI fragment was ligated into the GFP fusion vector pEGFP-N1 (Clontech).
Both MSU1.1 and HeLa cells were grown on 18 mm glass coverslips in Optimem medium (Life Technologies) supplemented with 10% fetal bovine serum, penicillin and streptomycin. Plasmids were transfected using Superfect Reagent (Qiagen) for 2 hr after which coverslips were washed with PBS and placed in fresh culture medium at 37° C. with 5% CO2 for 1-24 hr.
For imaging of GFP-fluorescence and immunofluorescence with the human p80 katanin antibody or with the γ-tubulin antibody, monoclonal GTU88 (Sigma Chemical), cells on coverslips were fixed either in −20° C. methanol or in 0.5×PBS, 3.7% formaldehyde, 75% methanol at 22° C. for 10 min followed by rehydration in TBST. Antibody labelling was carried out in TBST containing 4% BSA. Images were captured with a Nikon Microphot SA microscope, 100×Plan Fluor 1.3 objective, Photometrics Quantix camera and IP Lab Spectrum software (Scanalytics).

[1] = ATPase assay (modified malachite green method); assay type: biochemical; conditions: baculovirus-expressed subunit alone
Procedure: ATPase activity was measured by a modified malachite green method (Kodama et al. (1986) J. Biochem. 99: 1465-1472). ATPase reactions of 50-100 μl were carried out in a buffer previously used for measuring the ATPase activity of native katanin [20 mM K-HEPES pH 8.0, 25 mM potassium glutamate 2 mM MgCl2, 10% glycerol (v/v), 0.02% Triton X-100 (w/v), 1 mg/ml BSA] (McNally and Vale (1993) Cell, 75: 419-429), except that soybean trypsin inhibitor (SBTI) was replaced by BSA as a carrier protein because SBTI increased background phosphate contamination. An ATP regenerating system, consisting of 0.5-1.0 mM phosphoenol pyruvate and 2 units of pyruvate kinase, was included to minimize the inhibition by ADP observed previously for native katanin (McNally and Vale (1993) Cell, 75: 419-429). Microtubules were prepared from bovine brain tubulin (Hyman et al. (1990) Meth. Enzymol. 196: 303-319; and Williams and Lee (1982) Meth Enzymol. 85B: 376-385). After assembly, microtubules were sedimented (230,000×g; 10 min), resuspended in ATPase buffer lacking BSA, and the polymers were resuspended by repeated passage through a 27 gauge needle. Microtubule concentration was determined by measuring the absorbance at 275 nm in 6 M guanidine HCl by using a molecular mass of 110 kDa and an extinction coefficient of 1.03 ml mg^−1 cm^−1 (Hackney (1988) Proc. Natl. Acad Sci. USA, 85: 6314-6318). ATPase reactions were carried out at room temperature, and were initiated by addition of katanin.

[2] = test system: Taxol-stabilized, rhodamine-labeled microtubules; test: Microscope-based microtubule severing assay; assay type: biochemical; conditions: p60, p60/p80 0.1 μM; p80 0.5 μM (5-fold higher)
Procedure: FIGS. 5A, 5B, and 5C illustrate the activities of recombinant katanin subunits. […] Taxol-stabilized, rhodamine-labeled microtubules were adsorbed onto the surface of a microscope perfusion chamber, and then recombinant katanin subunits were introduced. The time elapsed after perfusing p60/p80 (0.1 μM), p60 (0.1 μM), or p80 (0.5 μM) is shown. The recombinant co-expressed p60/p80 and p60, but not p80, can sever and disassemble microtubules. Scale bar, 10 μm.
Microscope-based severing assays were performed using previously published procedures (McNally and Vale (1993) Cell, 75: 419-429), except that microtubules were immobilized by first perfusing flow cells with a bacterially expressed kinesin mutant that binds strongly to microtubules but is unable to hydrolyze ATP (K560, G234A mutant; R. Vale and E. Taylor, unpublished results). Assays were performed in 20 mM Hepes (pH 7.5), 2 mM MgCl2, 1 mM ATP with an oxygen scavenger system consisting of glucose oxidase (220 μg/ml), catalase (36 μg/ml), glucose (22.5 mM), and 2-mercaptoethanol (71.5 mM). Images were captured using a cooled, slow-scan CCD (Photometerics) and processed using Adobe Photoshop.

[3] = test system: DAPI-labeled microtubules; test: DAPI fluorescence microtubule disassembly (severing) assay; assay type: biochemical, bovine; conditions: 2 μM microtubules
From the text: To better compare the microtubule severing activities of p60 and p60/p80, we developed a quantitative microtubule disassembly assay based upon a previous finding that DAPI fluorescence intensity is higher when this dye is bound to polymerized versus free tubulin (Heusele et al. (1987) Eur. J Biochem. 165: 613-620). […] This slower rate of microtubule disassembly is consistent with the previously described 2-fold decrease in ATPase activity of p60 compared with p60/p80.
ATPase activity was measured by a modified malachite green method (Kodama et al. (1986) J. Biochem. 99: 1465-1472). […] Microtubule concentration was determined by measuring the absorbance at 275 nm in 6 M guanidine HCl by using a molecular mass of 110 kDa and an extinction coefficient of 1.03 ml mg^−1 cm^−1 (Hackney (1988) Proc. Natl. Acad Sci. USA, 85: 6314-6318). […]
DAPI severing assays were performed using conditions where the change in fluorescence intensity was linear with the amount of tubulin polymer added (Heusele et al. (1987) Eur. J Biochem. 165: 613-620). […] The reaction volume was 80 μL, and fluorescence intensity was measured by exciting at 370 nm. and measuring the emission at 450 mn using a model 8100 fluorimeter (SLM Instruments) in photon counting mode.

| Molecule | localization of GFP fluorescence (MSU1.1 human fibroblasts) | ATPase activity (in words) [1] | microtubule severing (in words) [2] | change in DAPI fluorescence (in words) [3] |
| --- | --- | --- | --- | --- |
| p80 WD40-GFP: fusion of the six WD40 repeats of human p80 katanin (a.a. 1-263) to the N-terminus of green fluorescent protein (protein, left off: large carriers, fusion of the six WD40 repeats of human p80 katanin (a.a. 1-263) to the N-terminus of green fluorescent protein) MATPVVTKTAWKLQEIVAHASNVSSLVLGKASGRLLATGGDDCRVNLWSINKPNCIMSLTGHTSPVESVRLNTPEELIVAGSQSGSIRVWDLEAAKILRTLMGHKANICSLDFHPYGEFVASGSQDTNIKLWDIRRKGCVFRYRGHSQAVRCLRFSPDGKWLASAADDHTVKLWDLTAGKMMSEFPGHTGPVNVVEFHPNEYLLASGSSDRTIRFWDLEKFQVVSCIEGEPGPVRSVLFNPDGCCLYSGCQDSLRVYGWEPER | co-localized with γ-tubulin staining |  |  |  |
| p80: S. purpuratus katanin p80 subunit, 690 a.a. with six WD40 repeats (SEQ ID NO:2), baculovirus-expressed, His-tagged (protein, listed as Strongylocentrotus purpuratus, His tag; katanin p80 subunit) MATKRAWKLQELVAHSSNVNCLALGPMSGRVMVTGGEDKKVNLWAVGKQNCIISLSGHTSPVDSVKFNSSEELVVAGSQSGTMKIYDLEPAKIVRTLTGHRNSIRCMDFHPFGEFVASGSTDTNVKLWDVRRKGCIYTYKGHSDQVNMIKFSPDGKWLVTASEDTTIKLWDLTMGKLFQEFKNHTGGVTGIEFHPNEFLLASGSSDRTVQFWDLETFQLVSSTSPGASAVRSISFHPDGSYLFCSSQDMLHAFGWEPIRCFDTFSVGWGKVADTVIASTQLIGASFNATNVSVYVADLSRMSTTGIAQEPQSQPSKTPSGGAEEVPSKPLTASGRKNFVRERPHTTSSKQRQPDVKSEPERQSPTQDEGVKDDDATDIKDPDSYAKIFSPKTRVDHSPERNAQPFPAPLDVPGAQEPEPFKHPPKPAAAAAVAPVSRAPAPSASDWQPAQANPAPNRVPAATKPVPAQEVAPSRKPDPISTIIPSDRNKPANLDMDAFLPPAHAQQAPRVNAPASRKQSDSERIEGLRKGHDSMCQVLSSRHRNLDVVRAIWTAGDAKTSVESVVNMKDQAILVDILNIMLLKKSLWNLDMCVVVLPRLKELLSSKYENYVHTSCACLKLILKNFTSLFNQNIKCPPSGIDITREERYNKCSKCYSYLIATRGYVEEKQHVSGKLGSSFRELHLLLDQLE |  | no detectable ATPase activity | unable to sever microtubules | did not cause a change in fluorescence that was different from that shown for microtubules alone |
